This is an account of results in US20050048477A1 (published 2005).

B1: Myr-Gal4AD (other, yeast)
chain: MGCTVSTQTIGDESDPPLTPSALFGGANFNQSGNIADSSLSFTFTNSSNGPNLITTQTNSQALSQPIASSNVHDNFMNNEITASKIDDGNNSKPLSPGWTDQTAYNAFGITTGMFNTTTMDDVYNYLFDDEDTPPNPKKE
modifications: N-myristoylation at the N-terminal signal
notes: range 758-881; also called membrane-localized Gal4AD
B2: wild type Gal3p (other, yeast, UniProt P13045 1-520, looked up)
chain: MNTNVPIFSSPVRDLPRSFEQKHLAVVDAFFQTYHVKPDFIARSPGRVNLIGEHIDYCDFSVLPLAIDVDMLCAVKILDEKNPSITLTNADPKFAQRKFDLPLDGSYMAIDPSVSEWSNYFKCGLHVAHSYLKKIAPERFNNTPLVGAQIFCQSDIPTGGGLSSAFTCAAALATIRANMGKNFDISKKDLTRITAVAEHYVGVNNGGMDQATSVYGEEDHALYVEFRPKLKATPFKFPQLKNHEISFVIANTLVKSNKFETAPTNYNLRVIEVTVAANALATRYSVALPSHKDNSNSERGNLRDFMDAYYARYENQAQPWNGDIGTGIERLLKMLQLVEESFSRKKSGFTVHEASTALNCSREEFTRDYLTTFPVRFQVLKLYQRAKHVYSESLRVLKALKMMTSATFHTDEDFFTDFGRLMNESQASCDKLYECSCIETNQICSIALANGSFGSRLTGAGWGGCTIHLVPSGANGNVEQVRKALIEKFYNVRYPDLTDEELKDAIIVSKPALGTCLYEQ
B3: Gal80-GFP (other, yeast, UniProt P04387 1-435, looked up)
chain: MDYNKRSSVSTVPNAAPIRVGFVGLNAAKGWAIKTHYPAILQLSSQFQITALYSPKIETSIATIQRLKLSNATAFPTLESFASSSTIDMIVIAIQVASHYEVVMPLLEFSKNNPNLKYLFVEWALACSLDQAESIYKAAAERGVQTIISLQGRKSPYILRAKELISQGYIGDINSIEIAGNGGWYGYERPVKSPKYIYEIGNGVDLVTTTFGHTIDILQYMTSSYFSRINAMVFNNIPEQELIDERGNRLGQRVPKTVPDHLLFQGTLLNGNVPVSCSFKGGKPTKKFTKNLVIDIHGTKGDLKLEGDAGFAEISNLVLYYSGTRANDFPLANGQQAPLDPGYDAGKEIMEVYHLRNYNAIVGNIHRLYQSISDFHFNTKKIPELPSQFVMQGFDFEGFPTLMDALILHRLIESVYKSNMMGSTLNVSNISHYSL
notes: Order of parts follows the name Gal80-GFP; also called Gal80p fused to green fluorescent protein; not shown: green fluorescent protein (GFP amplified from pYGFP1)
B4: Gal80p (other, yeast, UniProt P04387 1-435, looked up)
chain: B3 chain

Assay [1] has as its target B4. In words: membrane-tethered Gal4AD in yeast with a UASGAL-HIS3 reporter, growth without galactose. From the text:
FIG. 7. Membrane targeted transcriptional activation domain of Gal4p (Gal4AD; a.a. 758-881) activates HIS3 reporter gene expression. A yeast strain harboring a UASGAL-HIS3 reporter was transformed with Myr-Gal4AD. […] Transformed cells were spotted on synthetic medium plates lacking histidine, tryptophan and uracil and containing 3% glycerol/2% lactic acid as carbon source.

For assay [2], the target named is B4. In words: cell-based or functional assay.
Assay [3] addresses T1, myristoylated Gal3p (Myr-Gal3p) (yeast, UniProt P13045 1-520, limits assumed, N-myristoylation (acylation) at the N-terminal signal).
T1 construct: also called membrane-associated Gal3p
T1 sequence: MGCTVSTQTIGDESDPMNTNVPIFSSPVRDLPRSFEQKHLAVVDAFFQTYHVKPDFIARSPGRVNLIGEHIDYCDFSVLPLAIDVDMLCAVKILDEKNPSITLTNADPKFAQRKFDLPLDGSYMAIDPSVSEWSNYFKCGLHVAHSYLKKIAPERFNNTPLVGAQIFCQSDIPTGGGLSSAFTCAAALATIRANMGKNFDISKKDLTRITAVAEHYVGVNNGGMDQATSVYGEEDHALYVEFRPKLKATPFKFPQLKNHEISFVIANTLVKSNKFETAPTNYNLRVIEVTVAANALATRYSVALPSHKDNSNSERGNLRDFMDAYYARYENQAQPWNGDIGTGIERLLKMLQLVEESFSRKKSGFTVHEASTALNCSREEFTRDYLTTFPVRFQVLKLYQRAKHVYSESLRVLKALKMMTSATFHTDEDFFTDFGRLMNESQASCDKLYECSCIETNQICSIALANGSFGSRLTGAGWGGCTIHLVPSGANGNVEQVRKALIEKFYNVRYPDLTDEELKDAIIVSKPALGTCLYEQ
In words: fluorescence microscopy of yeast Sc786 co-expressing Gal80-GFP and Myr-Gal3p, galactose induced.

For a further assay, the target named is Gal4p (yeast, UniProt P04386 1-881). In words: formaldehyde cross-linking and chromatin immunoprecipitation at UASGAL, wild type yeast, un-induced and galactose induced. How it is done: Fold enrichments are indicated (enrichment). […] FIG. 3C illustrates quantitation of promoter occupancy by Gal4p, Gal80p and Gal3p in un-induced and induced cells. Values are means (±standard deviation) of at least five experiments carried out with two sets of independently prepared chromatin samples.
Chromatin immunoprecipitations were performed as described by Braunstein et al., 1993, Genes Dev. 7: 592-604 and Kuras et al. 1999, Nature 399: 609-613. Briefly, wild type Sc723 cells (Blank et al., 1997, Mol. Cell. Biol. 17: 2566-2575) were grown to early exponential growth phase (as measured by absorbance at 600 nm ˜0.4) in 250 mL yeast extract-peptone medium containing 2% glycerol, 3% lactic acid, and 0.05% glucose (−galactose, un-induced). For galactose-induced cultures, galactose was added to the un-induced cultures to a final concentration of 2% and the cultures were incubated for an additional 20 minutes. Formaldehyde was added to a final concentration of 1%, the cultures were incubated for 20 minutes at room temperature, and glycine was added to a final concentration of 300 mM. All the following steps were carried out at 4° C. Cells were washed twice with TBS (20 mM Tris-HCl, 150 mM NaCl, pH 8.0), resuspended in 1 mL lysis buffer (50 mM Tris-HCl pH 8.0, 10 mM EDTA, 1% SDS, 1 mM PMSF), and disrupted by vortexing with glass beads. […]

The target in the assay “wild type Gal3p” is B2. Briefly: conclusion from Examples 1-3 (localisation, reporter induction, chromatin immunoprecipitation) in yeast with galactose.

Gal4p, sequence (P04386 whole entry, the tested form may be a part): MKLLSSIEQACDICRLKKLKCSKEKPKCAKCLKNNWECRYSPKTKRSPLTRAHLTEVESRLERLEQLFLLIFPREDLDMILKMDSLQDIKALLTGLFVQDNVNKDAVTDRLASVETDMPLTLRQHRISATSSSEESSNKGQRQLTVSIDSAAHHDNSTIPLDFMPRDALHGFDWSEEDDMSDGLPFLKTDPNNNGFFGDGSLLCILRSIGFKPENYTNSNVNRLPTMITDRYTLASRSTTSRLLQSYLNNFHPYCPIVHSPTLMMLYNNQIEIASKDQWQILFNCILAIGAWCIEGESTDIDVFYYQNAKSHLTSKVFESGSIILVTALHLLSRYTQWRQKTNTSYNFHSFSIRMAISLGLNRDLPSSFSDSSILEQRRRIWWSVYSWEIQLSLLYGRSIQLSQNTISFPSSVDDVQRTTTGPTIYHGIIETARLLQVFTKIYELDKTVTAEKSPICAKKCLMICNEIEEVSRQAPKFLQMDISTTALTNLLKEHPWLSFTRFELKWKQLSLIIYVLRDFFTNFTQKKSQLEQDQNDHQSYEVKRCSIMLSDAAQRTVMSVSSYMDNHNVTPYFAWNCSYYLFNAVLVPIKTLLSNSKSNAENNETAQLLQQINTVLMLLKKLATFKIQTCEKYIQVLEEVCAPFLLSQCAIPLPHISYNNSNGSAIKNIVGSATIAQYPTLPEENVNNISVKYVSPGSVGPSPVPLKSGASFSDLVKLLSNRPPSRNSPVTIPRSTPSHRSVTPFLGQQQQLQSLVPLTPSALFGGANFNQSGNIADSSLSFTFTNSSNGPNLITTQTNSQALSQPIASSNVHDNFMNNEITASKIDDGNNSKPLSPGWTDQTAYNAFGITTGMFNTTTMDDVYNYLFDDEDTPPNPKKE

On to B1, for which, in the assay with Gal80p [1], the binding result is given as “binds”.

As for B2, the “reduction in MEL1 gene expression level” value with Gal80p [2] is 2 fold.

In the case of B3, the binding result in assay [3] is listed as “binds”.

On to B4, for which the binding result with Gal4p and in the assay with wild type Gal3p was “binds” each time.
